In paper PMC5563082, “Structural Mechanism for Modulation of Synaptic Neuroligin-Neurexin Signaling by MDGA Proteins” (Neuron, 2017):
Values belong to the binder of their own block, whether it stands above or below them.

Assays:
[1] = molecular target: T1, human MDGA1 extracellular domain (MDGA1_(ECTO); Gln19-Lys925) (human, UniProt Q8NFP4-1 19-925); assay: SPR; biotinylated NL_(ECTO)-Avitag variants captured from dialysed conditioned medium on streptavidin CM5 chip (500 RU; 550 RU for the ΔSite series; 1000 RU for NL3 and NL3 Arg451Cys in the R451C series); β-NRX1_(LNS6)(±4), MDGA1_(ECTO), MDGA2_(ECTO) injected, 15 concentrations, two-fold series from 50 μM; TBS-CTB (10 mM Tris pH 7.4, 150 mM NaCl, 3 mM CaCl2, 0.005% Tween-20, 1.0 g/L BSA); equilibrium analysis, 1:1 …; conditions: both partners purified
T1 construct: human MAM domain-containing glycosylphosphatidylinositol anchor protein 1, Gln19-Lys925; Not deglycosylated; also called human MDGA1_(ECTO); source: HEK293T, transient transfection, purified (IMAC, SEC)
T1 sequence (looked up): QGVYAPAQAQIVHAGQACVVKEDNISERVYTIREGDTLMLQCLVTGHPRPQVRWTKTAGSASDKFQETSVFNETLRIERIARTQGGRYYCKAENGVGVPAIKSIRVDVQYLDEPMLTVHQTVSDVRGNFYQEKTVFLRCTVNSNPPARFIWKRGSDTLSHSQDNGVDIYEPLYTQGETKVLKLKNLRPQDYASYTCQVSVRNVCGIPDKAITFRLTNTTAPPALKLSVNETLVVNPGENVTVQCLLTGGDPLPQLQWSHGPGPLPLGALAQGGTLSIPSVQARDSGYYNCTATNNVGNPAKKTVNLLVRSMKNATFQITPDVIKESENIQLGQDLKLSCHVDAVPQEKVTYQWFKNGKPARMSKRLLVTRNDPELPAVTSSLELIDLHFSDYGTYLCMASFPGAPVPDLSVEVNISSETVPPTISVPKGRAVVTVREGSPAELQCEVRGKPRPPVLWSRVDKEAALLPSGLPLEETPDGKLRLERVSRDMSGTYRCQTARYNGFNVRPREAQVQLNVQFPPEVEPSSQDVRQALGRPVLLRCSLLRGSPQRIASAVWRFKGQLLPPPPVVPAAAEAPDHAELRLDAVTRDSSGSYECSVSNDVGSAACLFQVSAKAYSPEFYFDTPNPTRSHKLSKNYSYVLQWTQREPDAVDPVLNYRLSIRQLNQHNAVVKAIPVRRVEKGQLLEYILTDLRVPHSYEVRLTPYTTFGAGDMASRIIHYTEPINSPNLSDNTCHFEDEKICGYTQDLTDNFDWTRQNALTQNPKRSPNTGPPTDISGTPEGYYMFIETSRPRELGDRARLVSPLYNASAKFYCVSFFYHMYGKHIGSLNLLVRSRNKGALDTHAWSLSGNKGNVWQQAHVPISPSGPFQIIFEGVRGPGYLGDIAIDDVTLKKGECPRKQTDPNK

[2] = molecular target: T2, human MDGA2 extracellular domain (MDGA2_(ECTO); Gln21-Lys927) (human, UniProt Q7Z553 21-927); assay: as above; conditions: both partners purified
T2 construct: human MAM domain-containing glycosylphosphatidylinositol anchor protein 2, Gln21-Lys927; Not deglycosylated; source: HEK293T, transient transfection, purified (IMAC, SEC)
T2 sequence (looked up): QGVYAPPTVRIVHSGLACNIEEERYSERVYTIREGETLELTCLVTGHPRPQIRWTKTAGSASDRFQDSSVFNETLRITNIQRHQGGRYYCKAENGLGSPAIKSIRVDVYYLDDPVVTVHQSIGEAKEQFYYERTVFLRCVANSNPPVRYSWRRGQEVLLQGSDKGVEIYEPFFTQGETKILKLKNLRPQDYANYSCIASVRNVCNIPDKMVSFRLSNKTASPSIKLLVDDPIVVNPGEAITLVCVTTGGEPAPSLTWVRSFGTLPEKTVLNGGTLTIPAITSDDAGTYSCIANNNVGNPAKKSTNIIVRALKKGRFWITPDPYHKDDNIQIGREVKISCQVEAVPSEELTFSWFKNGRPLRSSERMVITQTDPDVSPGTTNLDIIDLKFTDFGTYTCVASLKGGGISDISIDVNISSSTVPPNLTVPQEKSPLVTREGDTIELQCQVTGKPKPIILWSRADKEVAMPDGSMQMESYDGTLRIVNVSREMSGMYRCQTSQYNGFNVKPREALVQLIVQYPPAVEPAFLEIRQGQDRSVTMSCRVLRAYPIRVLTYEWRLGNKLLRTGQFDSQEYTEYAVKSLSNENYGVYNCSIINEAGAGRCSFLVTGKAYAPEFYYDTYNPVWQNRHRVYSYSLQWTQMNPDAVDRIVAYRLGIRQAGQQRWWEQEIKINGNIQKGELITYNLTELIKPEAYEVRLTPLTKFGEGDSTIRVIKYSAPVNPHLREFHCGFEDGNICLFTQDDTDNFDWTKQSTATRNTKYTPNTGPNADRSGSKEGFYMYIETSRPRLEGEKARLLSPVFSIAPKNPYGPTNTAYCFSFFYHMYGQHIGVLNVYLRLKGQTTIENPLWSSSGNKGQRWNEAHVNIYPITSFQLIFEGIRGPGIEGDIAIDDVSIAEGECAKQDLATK

B1: human NL2(+A)_(ECTO), immobilised for SPR (domain or fragment, UniProt Q8NFZ4 38-612, looked up)
chain: EERFPVVNTAYGRVRGVRRELNNEILGPVVQFLGVPYATPPLGARRFQPPEAPASWPGVRNATTLPPACPQNLHGALPAIMLPVWFTDNLEAAATYVQNQSEDCLYLNLYVPTEDGPLTKKRDEATLNPPDTDIRDPGKKPVMLFLHGGSYMEGTGNMFDGSVLAAYGNVIVATLNYRLGVLGFLSTGDQAAKGNYGLLDQIQALRWLSENIAHFGGDPERITIFGSGAGASCVNLLILSHHSEGLFQKAIAQSGTAISSWSVNYQPLKYTRLLAAKVGCDREDSAEAVECLRRKPSRELVDQDVQPARYHIAFGPVVDGDVVPDDPEILMQQGEFLNYDMLIGVNQGEGLKFVEDSAESEDGVSASAFDFTVSNFVDNLYGYPEGKDVLRETIKFMYTDWADRDNGEMRRKTLLALFTDHQWVAPAVATAKLHADYQSPVYFYTFYHHCQAEGRPEWADAAHGDELPYVFGVPMVGATDLFPCNFSKNDVMLSAVVMTYWTNFAKTGDPNQPVPQDTKFIHTKPNRFEEVVWSKFNSKEKQYLHIGLKPRVRDNYRANKVAFWLELVPHLHNLH
modifications: biotin on the Avitag (in vivo biotinylation by BirA)
notes: source: HEK293T, co-transfected with ER-resident BirA; dialysed conditioned medium, captured on streptavidin chip
binding result [1]: binds
binding result [2]: binds

B2: human NL5_(ECTO) (NL4(Y); Gln42-Glu602), immobilised for SPR (domain or fragment)
chain: QAQYPVVNTNYGKIQGLRTPLPSEILGPVEQYLGVPYASPPTGERRFQPPESPSSWTGIRNATQFSAVCPQHLDERFLLHDMLPIWFTTSLDTLMTYVQDQNEDCLYLNIYVPMEDDIHEQNSKKPVMVYIHGGSYMEGTGNMIDGSILASYGNVIVITINYRLGILGFLSTGDQAAKGNYGLLDQIQALRWIEENVGAFGGDPKRVTIFGSGAGASCVSLLTLSHYSEGLFQKAIIQSGTALSSWAVNYQPAKYTRILADKVGCNMLDTTDMVECLKNKNYKELIQQTITPATYHIAFGPVIDGDVIPDDPQILMEQGEFLNYDIMLGVNQGEGLKFVDGIVDNEDGVTPNDFDFSVSNFVDNLYGYPEGKDTLRETIKFMYTDWADKENPETRRKTLVALFTDHQWVAPAVATADLHAQYGSPTYFYAFYHHCQSEMKPSWADSAHGDEVPYVFGIPMIGPTELFSCNFSKNDVMLSAVVMTYWTNFAKTGDPNQPVPQDTKFIHTKPNRFEEVAWSKYNPKDQLYLHIGLKPRVRDHYRATKVAFWLELVPHLHNLNE
modifications: biotin on the Avitag (in vivo biotinylation by BirA)
notes: human neuroligin-5 (neuroligin-4, Y-linked), Gln42-Glu602; source: HEK293T, co-transfected with ER-resident BirA; dialysed conditioned medium, captured on streptavidin chip
binding result [1]: binds
binding result [2]: binds

B3: human NL4_(ECTO) (NL4(X); Gln42-Glu602), immobilised for SPR (domain or fragment)
chain: QAQYPVVNTNYGKIRGLRTPLPNEILGPVEQYLGVPYASPPTGERRFQPPEPPSSWTGIRNTTQFAAVCPQHLDERSLLHDMLPIWFTANLDTLMTYVQDQNEDCLYLNIYVPTEDDIHDQNSKKPVMVYIHGGSYMEGTGNMIDGSILASYGNVIVITINYRLGILGFLSTGDQAAKGNYGLLDQIQALRWIEENVGAFGGDPKRVTIFGSGAGASCVSLLTLSHYSEGLFQKAIIQSGTALSSWAVNYQPAKYTRILADKVGCNMLDTTDMVECLRNKNYKELIQQTITPATYHIAFGPVIDGDVIPDDPQILMEQGEFLNYDIMLGVNQGEGLKFVDGIVDNEDGVTPNDFDFSVSNFVDNLYGYPEGKDTLRETIKFMYTDWADKENPETRRKTLVALFTDHQWVAPAVATADLHAQYGSPTYFYAFYHHCQSEMKPSWADSAHGDEVPYVFGIPMIGPTELFSCNFSKNDVMLSAVVMTYWTNFAKTGDPNQPVPQDTKFIHTKPNRFEEVAWSKYNPKDQLYLHIGLKPRVRDHYRATKVAFWLELVPHLHNLNE
modifications: biotin on the Avitag (in vivo biotinylation by BirA)
notes: human neuroligin-4 (X-linked), Gln42-Glu602; source: HEK293T, co-transfected with ER-resident BirA; dialysed conditioned medium, captured on streptavidin chip
binding result [1]: binds
binding result [2]: binds

Continued, values first:

binding result [1]: binds
binding result [2]: binds
B4: human NL3(–A)_(ECTO) (Gln38-Asp636), immobilised for SPR (domain or fragment, UniProt Q9NZ94-1 38-636, looked up)
chain: QAPAPTVNTHFGKLRGARVPLPSEILGPVDQYLGVPYAAPPIGEKRFLPPEPPPSWSGIRNATHFPPVCPQNIHTAVPEVMLPVWFTANLDIVATYIQEPNEDCLYLNVYVPTEDDIRDSGAKPVMVYIHGGSYMEGTGNMIDGSILASYGNVIVITLNYRVGVLGFLSTGDQAAKGNYGLLDQIQALRWVSENIAFFGGDPRRITVFGSGIGASCVSLLTLSHHSEGLFQRAIIQSGSALSSWAVNYQPVKYTSLLADKVGCNVLDTVDMVDCLRQKSAKELVEQDIQPARYHVAFGPVIDGDVIPDDPEILMEQGEFLNYDIMLGVNQGEGLKFVEGVVDPEDGVSGTDFDYSVSNFVDNLYGYPEGKDTLRETIKFMYTDWADRDNPETRRKTLVALFTDHQWVEPSVVTADLHARYGSPTYFYAFYHHCQSLMKPAWSDAAHGDEVPYVFGVPMVGPTDLFPCNFSKNDVMLSAVVMTYWTNFAKTGDPNKPVPQDTKFIHTKANRFEEVAWSKYNPRDQLYLHIGLKPRVRDHYRATKVAFWKHLVPHLYNLHD
modifications: biotin on the Avitag (in vivo biotinylation by BirA)
notes: also called NL3_(ECTO); source: HEK293T, co-transfected with ER-resident BirA; dialysed conditioned medium, captured on streptavidin chip

binding result [1]: binds
binding result [2]: binds
B5: human NL3(+A1)_(ECTO), immobilised for SPR (domain or fragment, UniProt Q9NZ94-1 38-636, looked up)
chain: QAPAPTVNTHFGKLRGARVPLPSEILGPVDQYLGVPYAAPPIGEKRFLPPEPPPSWSGIRNATHFPPVCPQNIHTAVPEVMLPVWFTANLDIVATYIQEPNEDCLYLNVYVPTEDVKRISKECARKPNKKICRKGDIRDSGAKPVMVYIHGGSYMEGTGNMIDGSILASYGNVIVITLNYRVGVLGFLSTGDQAAKGNYGLLDQIQALRWVSENIAFFGGDPRRITVFGSGIGASCVSLLTLSHHSEGLFQRAIIQSGSALSSWAVNYQPVKYTSLLADKVGCNVLDTVDMVDCLRQKSAKELVEQDIQPARYHVAFGPVIDGDVIPDDPEILMEQGEFLNYDIMLGVNQGEGLKFVEGVVDPEDGVSGTDFDYSVSNFVDNLYGYPEGKDTLRETIKFMYTDWADRDNPETRRKTLVALFTDHQWVEPSVVTADLHARYGSPTYFYAFYHHCQSLMKPAWSDAAHGDEVPYVFGVPMVGPTDLFPCNFSKNDVMLSAVVMTYWTNFAKTGDPNKPVPQDTKFIHTKANRFEEVAWSKYNPRDQLYLHIGLKPRVRDHYRATKVAFWKHLVPHLYNLHD
modifications: biotin on the Avitag (in vivo biotinylation by BirA)
notes: as for B1

Kd [1]: ~2000 nM
Kd [2]: ~1000 nM
B6: human NL2(–A)_(ECTO) (Glu38-His612), immobilised for SPR (domain or fragment, UniProt Q8NFZ4 38-612, looked up)
chain: EERFPVVNTAYGRVRGVRRELNNEILGPVVQFLGVPYATPPLGARRFQPPEAPASWPGVRNATTLPPACPQNLHGALPAIMLPVWFTDNLEAAATYVQNQSEDCLYLNLYVPTEDDIRDPGKKPVMLFLHGGSYMEGTGNMFDGSVLAAYGNVIVATLNYRLGVLGFLSTGDQAAKGNYGLLDQIQALRWLSENIAHFGGDPERITIFGSGAGASCVNLLILSHHSEGLFQKAIAQSGTAISSWSVNYQPLKYTRLLAAKVGCDREDSAEAVECLRRKPSRELVDQDVQPARYHIAFGPVVDGDVVPDDPEILMQQGEFLNYDMLIGVNQGEGLKFVEDSAESEDGVSASAFDFTVSNFVDNLYGYPEGKDVLRETIKFMYTDWADRDNGEMRRKTLLALFTDHQWVAPAVATAKLHADYQSPVYFYTFYHHCQAEGRPEWADAAHGDELPYVFGVPMVGATDLFPCNFSKNDVMLSAVVMTYWTNFAKTGDPNQPVPQDTKFIHTKPNRFEEVVWSKFNSKEKQYLHIGLKPRVRDNYRANKVAFWLELVPHLHNLH
modifications: biotin on the Avitag (in vivo biotinylation by BirA)
notes: also called NL2_(ECTO); source: HEK293T, co-transfected with ER-resident BirA; dialysed conditioned medium, captured on streptavidin chip
